# Target: recombinant human PGRN (human) (UniProt P28799)
# Sequence of UniProt P28799 (P28799 18-593): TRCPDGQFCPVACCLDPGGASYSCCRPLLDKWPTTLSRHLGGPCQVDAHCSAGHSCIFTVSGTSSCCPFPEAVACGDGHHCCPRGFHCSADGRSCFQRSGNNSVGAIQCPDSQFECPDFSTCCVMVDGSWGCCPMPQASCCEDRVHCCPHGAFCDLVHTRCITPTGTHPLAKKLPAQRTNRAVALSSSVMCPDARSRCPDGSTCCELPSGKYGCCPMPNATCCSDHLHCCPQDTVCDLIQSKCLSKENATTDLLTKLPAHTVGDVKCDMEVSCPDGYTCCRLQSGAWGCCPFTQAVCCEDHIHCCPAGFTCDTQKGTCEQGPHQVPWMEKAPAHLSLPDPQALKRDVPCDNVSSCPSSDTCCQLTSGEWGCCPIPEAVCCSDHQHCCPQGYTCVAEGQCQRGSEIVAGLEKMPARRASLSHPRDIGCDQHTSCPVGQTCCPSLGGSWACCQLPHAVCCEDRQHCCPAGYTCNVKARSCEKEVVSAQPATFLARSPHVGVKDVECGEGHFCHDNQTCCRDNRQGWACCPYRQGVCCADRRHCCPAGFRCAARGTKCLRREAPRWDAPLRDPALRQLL
substance,measurement,value
recombinant human Flag-YB-1 (from UniProt P67809 1-324) (natural protein),inhibition of TNF-induced NF-κB luciferase reporter activity in transfected human embryonic kidney cells by combined stimulation with YB-1 and PGRN,65%
